Measured values as given in PMC6208734, “Epitope determines efficacy of therapeutic anti-Tau antibodies in a functional assay with human Alzheimer Tau” (Acta Neuropathologica, 2018).
Blank lines part the entries; values can stand above or below the binder they belong to.

Molecular target: T1, monomeric recombinant Tau (2N4R) (Homo sapiens (Human)., UniProt P10636-8)
T1 construct: Tau (microtubule-associated protein Tau), isoform 2N4R, 441 amino acids; gene synthesized by DNA2.0; also called Tau monomer; monomeric Tau; source: Expi293 expression system, purified from culture medium (Ni Sepharose Excel, TEV cleavage, second Ni Sepharose Excel); not shown: 10His-TEV, N-terminal, cleaved
Test: SPR; monomeric recombinant Tau and full-length IgG; BIAcore T200, 25 °C; extrinsic affinity; who was immobilised is not told for the monomer
Details: both partners purified

T1 sequence (P10636 other isoform, or with tags, fused parts or gaps): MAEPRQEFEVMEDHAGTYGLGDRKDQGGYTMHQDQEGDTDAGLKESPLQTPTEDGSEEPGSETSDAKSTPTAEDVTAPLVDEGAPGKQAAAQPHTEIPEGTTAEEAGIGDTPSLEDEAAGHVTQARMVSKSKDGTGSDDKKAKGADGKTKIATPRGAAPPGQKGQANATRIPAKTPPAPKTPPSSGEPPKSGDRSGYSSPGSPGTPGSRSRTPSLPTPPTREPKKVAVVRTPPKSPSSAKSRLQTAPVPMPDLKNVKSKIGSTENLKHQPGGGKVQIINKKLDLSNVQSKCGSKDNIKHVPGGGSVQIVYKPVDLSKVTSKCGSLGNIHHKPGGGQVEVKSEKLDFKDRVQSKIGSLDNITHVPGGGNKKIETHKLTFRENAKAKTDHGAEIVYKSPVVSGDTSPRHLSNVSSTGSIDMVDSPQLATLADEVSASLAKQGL

Kd: 20.7 nM
koff: 0.000953 s⁻¹
kon: 50000 M⁻¹ s⁻¹
B1: antibody B (antibody, V domains shown)
VH: EVKVEESGGGLVQPGGSMKLSCVVSGFTFSNYWVNWVRQSPEKGLEWVAQIRLKSDNYATHYEESVKGRFTISRDDSKSSVYLQMNNLRAEDSGIYYCTNWEDYWGQGTTLTVSS
VL: DIVLTQSPASLAVSLGQRATISCRASQSVSTSRYSYIHWYQQKPGQPPKLLIKYASNLESGVPARFSGSGSGTDFTLNIHPLEEEDAATYYCHHSWEIPLTFGAGTKLELK
notes: heavy chain V-region; mouse gamma-1 IgG heavy chain constant region (from the expression vector); light chain V-region; mouse kappa light chain constant region (from the expression vector); source: CHOSXE cell line, electroporated, purified (Protein A, gel filtration); copies: 2 + 2

Kd: 117 nM
koff: 0.0205 s⁻¹
kon: 180000 M⁻¹ s⁻¹
B2: antibody F (antibody, V domains shown)
VH: EVQLVQSGAEVKKPGESLKISCKGSGYTFSNYWIEWVRQMPGKGLEWMGEILPGSDSIKYEKNFKGQVTISADKSISTAYLQWSSLKASDTAMYYCARRGNYVDDWGQGTLVTVSS
VL: EIVLTQSPGTLSLSPGERATLSCRSSQSLVHSNQNTYLHWYQQKPGQAPRLLIYKVDNRFSGIPDRFSGSGSGTDFTLTISRLEPEDFAVYYCSQSTLVPLTFGGGTKVEIK
notes: as for B1

Kd: 0.16 nM
koff: 5.2e-05 s⁻¹
kon: 360000 M⁻¹ s⁻¹
B3: antibody A (antibody, V domains shown)
VH: EVHLVESGGALVKPGGSLKLSCAASGFSFSKYGMSWVRQTPDKRLEWVATISSSGSRTYYPDSVKGQFTISRDNAKNTLYLQMSSLKSEDTAMYYCSISWDGAMDYWGQGTSVTVSS
VL: DVLMTQTPLSLPVSLGDQASISCKSSQSIVHSNGNTYLEWYLQKPGQSPKLLVYKVSNRFSGVPDRFSGSGSGTDFTLKISRVEAEDLGTYYCFQGSLVPWAFGGGTKLEIK
notes: as for B1
